According to patent US20030199671A1 (published 2003):
Starred links: 1 amine or outer side, 2 acyl side, 3 side chain; linkers in the order of their positions; H or OH if unused. Primed or numbered codes have the meaning given here. code X(3) = -NH-(CH2CH2O)2-CH2CH2- (from -X-NH2 = -NH-(CH2CH2O)2-CH2CH2-NH2), C(COCCOCC[*:2])N[*:1]; code Z = not defined here; Su = not defined here

Legend:
human IgG4 [1] = molecular target: T1, human IgG4 (human, UniProt P01861-1 1-327 = IgG part); experiment: anisotropy; pH 7.5 - salt
T1 construct: Calbiochem; plasma IgG4 in anisotropy studies, myeloma-derived (cat. 400126) in batch/column studies; also called hIgG4
T1 sequence (P01861 other isoform, or with tags, fused parts or gaps): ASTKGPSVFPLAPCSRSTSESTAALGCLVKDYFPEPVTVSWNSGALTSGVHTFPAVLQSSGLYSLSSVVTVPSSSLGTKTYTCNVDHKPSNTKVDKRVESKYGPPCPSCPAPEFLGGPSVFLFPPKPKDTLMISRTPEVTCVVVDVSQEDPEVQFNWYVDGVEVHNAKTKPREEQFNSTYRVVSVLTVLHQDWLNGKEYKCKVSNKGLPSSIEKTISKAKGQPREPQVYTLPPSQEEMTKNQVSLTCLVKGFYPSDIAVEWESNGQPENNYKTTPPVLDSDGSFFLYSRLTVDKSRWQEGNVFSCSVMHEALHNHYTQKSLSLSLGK

human IgG1 [2] = molecular target: T2, human IgG1 (human, UniProt P01857-1 1-330 = IgG part); experiment: anisotropy; pH 7.5 - salt
T2 construct: Calbiochem; human plasma IgG1 in anisotropy studies, myeloma-derived (cat. 400120) in batch/column studies; also called hIgG1
T2 sequence (P01857 other isoform, or with tags, fused parts or gaps): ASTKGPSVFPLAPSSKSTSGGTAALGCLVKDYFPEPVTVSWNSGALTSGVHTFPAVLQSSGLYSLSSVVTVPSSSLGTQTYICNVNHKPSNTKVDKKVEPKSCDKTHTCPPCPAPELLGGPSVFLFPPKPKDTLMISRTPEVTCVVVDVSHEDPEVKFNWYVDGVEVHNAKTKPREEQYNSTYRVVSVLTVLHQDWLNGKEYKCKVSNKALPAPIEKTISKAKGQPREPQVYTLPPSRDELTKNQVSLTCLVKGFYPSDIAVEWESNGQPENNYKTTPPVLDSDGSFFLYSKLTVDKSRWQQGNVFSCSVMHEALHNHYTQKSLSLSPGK

human IgG3 [3] = molecular target: T3, human IgG3 (human, UniProt P01860-1 1-377); experiment: anisotropy; pH 7.5 + salt
T3 construct: Calbiochem; plasma IgG3 in anisotropy studies, myeloma-derived (cat. 400124) in batch/column studies; also called hIgG3
T3 sequence (P01860 other isoform, or with tags, fused parts or gaps): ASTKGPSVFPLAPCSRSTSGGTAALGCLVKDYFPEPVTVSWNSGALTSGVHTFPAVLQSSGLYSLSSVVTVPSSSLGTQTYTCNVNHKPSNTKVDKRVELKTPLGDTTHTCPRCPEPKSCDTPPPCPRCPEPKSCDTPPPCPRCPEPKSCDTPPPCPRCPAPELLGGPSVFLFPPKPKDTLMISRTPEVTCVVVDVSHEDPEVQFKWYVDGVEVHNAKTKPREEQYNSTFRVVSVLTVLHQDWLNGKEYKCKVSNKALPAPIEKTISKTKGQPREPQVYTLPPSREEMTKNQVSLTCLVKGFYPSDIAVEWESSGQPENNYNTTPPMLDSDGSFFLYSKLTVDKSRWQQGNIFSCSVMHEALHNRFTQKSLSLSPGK

human IgG3 [4] = molecular target: T3, human IgG3; experiment: anisotropy; pH 9.5 + salt
human IgG4 [5] = molecular target: T1, human IgG4; experiment: anisotropy; pH 4.0 - salt
human IgG3 [6] = molecular target: T3, human IgG3; experiment: anisotropy; pH 4.0 - salt
human IgG2 [7] = molecular target: T4, human IgG2 (human, UniProt P01859-1 1-326 = IgG part); experiment: anisotropy; pH 4.0 - salt
T4 construct: Calbiochem; plasma IgG2 in anisotropy studies, myeloma-derived (cat. 400122) in batch/column studies; also called hIgG2
T4 sequence (P01859 other isoform, or with tags, fused parts or gaps): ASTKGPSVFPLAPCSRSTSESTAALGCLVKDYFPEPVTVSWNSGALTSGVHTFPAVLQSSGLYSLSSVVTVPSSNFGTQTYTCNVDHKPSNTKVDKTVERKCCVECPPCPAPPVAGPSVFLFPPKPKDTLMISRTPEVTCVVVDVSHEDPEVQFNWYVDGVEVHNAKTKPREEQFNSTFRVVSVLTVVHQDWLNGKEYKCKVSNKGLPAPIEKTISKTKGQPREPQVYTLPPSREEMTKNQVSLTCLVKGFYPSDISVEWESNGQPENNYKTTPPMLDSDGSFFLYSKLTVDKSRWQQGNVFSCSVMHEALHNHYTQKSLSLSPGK

human IgG1 [8] = molecular target: T2, human IgG1; experiment: anisotropy; pH 4.0 - salt
human IgG3 [9] = molecular target: T3, human IgG3; experiment: anisotropy; pH 4.0 + salt
human IgG2 [10] = molecular target: T4, human IgG2; experiment: anisotropy; pH 7.5 - salt
human IgG2 [11] = molecular target: T4, human IgG2; experiment: anisotropy; pH 4.0 + salt
human IgG1 [12] = molecular target: T2, human IgG1; experiment: anisotropy; pH 4.0 + salt
human IgG4 [13] = molecular target: T1, human IgG4; experiment: batch binding, immobilised ligand
Procedure: (§1) IgG targets were diluted into 10 mM phosphate buffer containing 150 mM NaCl and 0.01% Tween 20, pH 7.2 (PBST) or 50 mM Tris buffer containing, 150 mM NaCl and 0.01% Tween-20, pH 7.5 (TBST). Batch (static) binding and elution studies were conducted in a 96-well assay filterplate (Millipore MultiScreen-HV, with 0.45 μm Durapore membrane, product no. MAHVN4510). The target was allowed to incubate with the resin for 1-1.5 hours with shaking at room temperature. Unbound target was collected by centrifugation of samples from the assay plate directly into a low-UV absorbing 96-well collection plate (Costar, product no. 3635 or Greiner, product no. 655801). The unbound target was then quantitated by reading the absorbance at 280 nm (normalized to 1 cm pathlength, 1.4 mg/ml A280 extinction coefficient) of the collection plate on a microplate spectrophotometer (Molecular Devices Corp., SPECTRAmax PLUS) against a buffer blank.
(§2) The percentage bound target was determined by subtracting the mass determined as unbound from the corresponding condition's control values (control non-filtered added directly to the collection plate and/or the negative control). The assay plate was washed (3×) with 200 μl of binding buffer by vacuum filtration followed by addition of 100 μl of various elution conditions (e.g.: 0.1 M sodium bicarbonate buffer, pH 8.5 and/or 0.1 M sodium citrate buffer, pH 4.0). After a 30-60 minute incubation with shaking at room temperature, the eluted target was collected by centrifugation of the assay plate into another collection plate and quantitated in a similar manner. Percent elution of total load was then determined to characterize elution recovery efficiency under various conditions.

human IgG3 [14] = molecular target: T3, human IgG3; experiment: batch binding, immobilised ligand
Procedure: as §1, §2

human IgG2 [15] = molecular target: T4, human IgG2; experiment: batch binding, immobilised ligand
Procedure: as §1, §2

human IgG1 [16] = molecular target: T2, human IgG1; experiment: batch binding, immobilised ligand
Procedure: as §1, §2

human IgG4 [17] = molecular target: T1, human IgG4; experiment: mini-column chromatography, immobilised ligand
Procedure: (§3) Thus, 250 μg of target (hIgG1, hIgG2, hIgG3, hIgG4, goat IgG and bovine IgG) at 0.250 mg/ml in PBST, pH 7.2 or TBST, pH 7.3 was loaded onto a 350 μl column (3×50 mm) run at 0.200 ml/min. flowrate (170 cm/hr). Flowthrough, elution and cleaning fractions were collected and assayed for total protein recovery by size-exclusion HPLC.

human IgG2 [18] = molecular target: T4, human IgG2; experiment: mini-column chromatography, immobilised ligand
Procedure: as §3

human IgG1 [19] = molecular target: T2, human IgG1; experiment: mini-column chromatography, immobilised ligand
Procedure: as §3

[20] = molecular target: T5, human IgG (unfractionated, polyclonal); experiment: filterplate; 25 mg human IgG applied per ml resin
T5 construct: also called hIgG; polyclonal human IgG
Procedure: After incubation of the samples, with shaking, at room temperature for one hour, the supernatant liquid from each well, containing unbound IgG, was collected by centrifugation into the cognate well of a collection plate. The assay plate was washed three times with PBST (200 μl/wash) and bound IgG was eluted from the media samples by incubation for 30-60 minutes at room temperature in 100 μl Elution Buffer (100 mM CAPS, pH 11.5). Eluates were collected by centrifugation for analysis. Protein concentrations were determined from A₂₈₀ measurements and plotted as a function of mg human IgG bound per ml resin vs. mg human IgG applied per ml resin.
These were subsequently tested in batch filterplate format for relative static capacity, human IgG subtype and species specificity as previously described. In addition, total dynamic capacities were determined for comparison. […] The static capacity (mg IgG bound per ml resin) was measured at the 2.5 mg/ml target concentration (25 mg human IgG applied per ml resin).

B1: DX398 (peptide)
peptide: Ac-AGAATCSTSYWYYQWFCTDSPGPEGGGK-NH2
modifications: not fully specified (bridges); printed as Ac-AGAATCSTSYWYYQWFCTDSPGPEGGGK-NH2; cysteine pairing not given here
notes: immobilised in batch assays
In the case of B1, the Kd (human IgG4 [1]) is reported as 3500 nM, the Kd (human IgG1 [2]) is reported as 4600 nM and the Kd (human IgG3 [3]) is reported as 300 nM. For the same binder, the Kd (human IgG3 [4]) was 300 nM, the Kd (human IgG4 [5]) was 1600 nM and the Kd (human IgG3 [6]) was 20 nM. The Kd (human IgG2 [7]) was 1800 nM, the Kd (human IgG1 [8]) was 2400 nM and the Kd (human IgG3 [9]) was 40 nM.

Ac-AGTYWCTFWELPCDPAPGPEGGGK-NH2 (cysteine pairing not given here, immobilised in batch/column assays) [DX404] showed a Kd (human IgG2 [10]) of 8600 nM, a Kd (human IgG1 [2]) of 8800 nM and a Kd (human IgG2 [7]) of 1000 nM. For the same binder, the Kd (human IgG1 [8]) was 1500 nM, the Kd (human IgG2 [11]) was 2000 nM and the Kd (human IgG1 [12]) was 2000 nM.

B2: DX413 (peptide)
peptide: Ac-AGYWYCWFPDRPECPLYPGPEGGGK-NH2
modifications: not fully specified (bridges); printed as Ac-AGYWYCWFPDRPECPLYPGPEGGGK-NH2; cysteine pairing not given here
Binder B2 has a Kd (human IgG3 [6]) of 840 nM and a Kd (human IgG3 [9]) of 1100 nM.

B3: DX253 (peptide)
peptide: Ac-GDRRACSRDWSGALVWCAGHEPGPEGGGK-NH2
modifications: not fully specified (bridges); printed as Ac-GDRRACSRDWSGALVWCAGHEPGPEGGGK-NH2; cysteine pairing not given here
notes: immobilised on Sepharose in batch/column assays
With B3 the “Bound (% of Total Load)” value (human IgG4 [13]) was 60%, the “bdg % (of Total Load)” value (human IgG4 [13]) was 40% and the “Bound (% of Total Load)” value (human IgG3 [14]) was 0%. The “bdg % (of Total Load)” value (human IgG3 [14]) was 15%, the “Bound (% of Total Load)” value (human IgG2 [15]) was 81% and the “bdg % (of Total Load)” value (human IgG2 [15]) was 63%. The “Bound (% of Total Load)” value (human IgG1 [16]) was 86%, the “bdg % (of Total Load)” value (human IgG1 [16]) was 56% and the binding efficiency (human IgG4 [17]) was over 90%. The binding efficiency (human IgG2 [18]) was over 90% and the binding efficiency (human IgG1 [19]) was over 90%.

B4: DX597 (peptide)
peptide: Ac-GDSWNCAFHHNEMVWCDDGGTPGPEGGGK-NH2
modifications: not fully specified (bridges); printed as Ac-GDSWNCAFHHNEMVWCDDGGTPGPEGGGK-NH2; cysteine pairing not given here
notes: Immobilised on Sepharose
In the case of B4, the “Bound (% of Total Load)” value (human IgG4 [13]) is reported as 71%, the “Bound (% of Total Load)” value (human IgG3 [14]) is reported as 0% and the “Bound (% of Total Load)” value (human IgG2 [15]) is reported as 90%. The “Bound (% of Total Load)” value (human IgG1 [16]) was 93%.

B5: DX1070 (peptide)
peptide: Ac-GDWGECTVTSYGELIWCGGLEPGPEGGGK-NH2
modifications: not fully specified (bridges); printed as Ac-GDWGECTVTSYGELIWCGGLEPGPEGGGK-NH2; cysteine pairing not given here
notes: Immobilised on Sepharose
In the case of B5, the “Bound (% of Total Load)” value (human IgG4 [13]) is reported as 59%, the “Bound (% of Total Load)” value (human IgG3 [14]) is reported as 0% and the “Bound (% of Total Load)” value (human IgG2 [15]) is reported as 82%. For the same binder, the “Bound (% of Total Load)” value (human IgG1 [16]) was 87%.

B6: DX1071 (peptide)
peptide: Ac-GDNPMCWRASWWEDAYCINHEPGPEGGGK-NH2
modifications: not fully specified (bridges); printed as Ac-GDNPMCWRASWWEDAYCINHEPGPEGGGK-NH2; cysteine pairing not given here
notes: Derivative of DX596 (two internal lysines replaced by arginine and alanine); immobilised
In the case of B6, the “Bound (% of Total Load)” value (human IgG4 [13]) is reported as 1%, the “Bound (% of Total Load)” value (human IgG3 [14]) is reported as 0% and the “Bound (% of Total Load)” value (human IgG2 [15]) is reported as 2%. For the same binder, the “Bound (% of Total Load)” value (human IgG1 [16]) was 7%.

B7: DX1072 (peptide)
peptide: Ac-GDNPMCWRAHWWEDAYCINHEPGPEGGGK-NH2
modifications: not fully specified (bridges); printed as Ac-GDNPMCWRAHWWEDAYCINHEPGPEGGGK-NH2; cysteine pairing not given here
notes: Derivative of DX596 (Lys-Lys to Arg-Ala and adjacent Ser to His); immobilised
B7 was tested, and the “Bound (% of Total Load)” value (human IgG4 [13]) was 15%, the “Bound (% of Total Load)” value (human IgG3 [14]) was 0% and the “Bound (% of Total Load)” value (human IgG2 [15]) was 21%. The “Bound (% of Total Load)” value (human IgG1 [16]) was 31%.

B8: DX907 (peptide)
peptide: Ac-GDDHMCVYTTWGELIWCDNH-{code X(3)-NH2}
modifications: not fully specified (bridges); printed as Ac-GDDHMCVYTTWGELIWCDNH-X-NH2; cysteine pairing not given here
notes: DX249 derivative; immobilised
B8 was tested, and the “Static Cap.” value [20] was 10 mg/mL.

B9: DX909 (peptide)
peptide: Ac-GDDHMCVYTTWGELIWCDNH-{code X(3)-Su-code X(3)-NH2}
modifications: not fully specified (bridges); printed as Ac-GDDHMCVYTTWGELIWCDNH-X-Su-X-NH2; cysteine pairing not given here; reading uncertain
notes: DX249 derivative; immobilised
With B9 the “Static Cap.” value [20] was 11 mg/mL.

B10: DX911 (peptide)
peptide: Ac-GDDHMCVYTTWGELIWCDNH-{code X(3)-code Z-code X(3)-NH2}
modifications: not fully specified (bridges); printed as Ac-GDDHMCVYTTWGELIWCDNH-X-Z-X-NH2; cysteine pairing not given here; reading uncertain
notes: DX249 derivative; immobilised
B10 was tested, and the “Static Cap.” value [20] was 9 mg/mL.

B11: DX389 (peptide)
peptide: Ac-AGPHNCDDHYWYCKWFPGPEGGGK-NH2
modifications: not fully specified (bridges); printed as Ac-AGPHNCDDHYWYCKWFPGPEGGGK-NH2; cysteine pairing not given here
notes: immobilised in batch assays
Binder B11 has a Kd (human IgG3 [6]) of 2500 nM and a Kd (human IgG3 [9]) of 1800 nM.

B12: DX392 (peptide)
peptide: Ac-AGSYWCKIWDVCPQSPGPEGGGK-NH2
modifications: not fully specified (bridges); printed as Ac-AGSYWCKIWDVCPQSPGPEGGGK-NH2; cysteine pairing not given here
notes: immobilised in batch assays
For B12, the Kd (human IgG3 [6]) was 320 nM and the Kd (human IgG3 [9]) was 600 nM.
